B1: rCST9: human recombinant cystatin 9, cysteine proteinase inhibitor; purchased from American Research Products, Inc. (protein, UniProt Q5W186 29-159, looked up)
Cystatin-9: WCSEEEMGGNNKIVQDPMFLATVEFALNTFNVQSKEEHAYRLLRVLSSWREDSMDRKWRGKMVFSMNLQLRQTVCRKFEDDIDNCPFQESLELNNVRQGISFPQVHSCGCCMGCGVGTGAADKAIPRDKGK
B2: rCSTC: human recombinant cystatin C (CST3), cysteine proteinase inhibitor; purchased from R&D Systems (protein, UniProt P01034 27-146, looked up)
Cystatin-C: SSPGKPPRLVGGPMDASVEEEGVRRALDFAVGEYNKASNDMYHSRALQVVRARKQIVAGVNYFLDVELGRTTCTKTQPNLDNCPFHDQPHLKRKAFCSFQIYAVPWQGTMTLSKSTCQDA

Key:
[1] = system: Burkholderia thialandensis (ATCC); experiment: Viability and virulence of pathogenic bacterial strains; format: cell-based; conditions: 50 pg dose
[2] = system: Klebsellia pneumoniae (isolate from burn patient lung); experiment: as above; format: cell-based; conditions: 50 pg dose
[3] = system: E. coli O157:H7 (ATCC); experiment: as above; format: cell-based; conditions: 50 pg dose
[4] = system: Pseudomonas aeruginosa (isolate from burn patient wound); experiment: as above; format: cell-based; conditions: 50 pg dose
[5] = system: Salmonella typhimurium (ATCC); experiment: as above; format: cell-based; conditions: 50 pg dose
[6] = system: human monocyte-derived macrophage (MDM); experiment: Macrophage killing of pathogens; format: cell-based; conditions: same five pathogens
[7] = system: monocyte-derived macrophages (MDM) infected with NDM-1-producing Kp; experiment: Cytokine secretion from NDM-1 Kp-infected MDM; format: cell-based, human; conditions: rCSTC 50 pg, rCST9 25 or 50 pg, individually and in combination; vs Kp-infected MDM
[8] = system: EC 083:H1 and flagellin; experiment: Mouse model of infection and thermal injury, survival; format: in vivo, Balb/c mice; conditions: i.p. 500 pg rCST9 and/or 50 pg rCSTC; 1000 ng flagellin + 1×10^7 CFU EC 083:H1 i.p.; 30% TBSA burn; observed 10 days
Experimental: (§1) Mice were intraperitoneally (i.p.) challenged with 1×10^7 CFU of an intestinal isolate E. coli (EC) and 1000 ng of flagellin then treated i.p. with 500 pg rCST9 and/or 50 pg rCSTC followed by a 30% full-thickness thermal injury (30% TBSA). […] Additional groups of infected, rCST treated and/or thermally injured mice were euthanized at 24 and 48 h post-thermal injury to collect serum and harvest intestinal samples. Cytokines were quantified in the serum and analysis of the gut microbiome.
Female Balb/c mice (n=6 mice/group), weighing 19-21 grams (Jackson Laboratories), were housed in a facility approved by the Association for Assessment and Accreditation for Laboratory Animal Care (AAALAC). Mice were allowed to adjust to their environment for at least seven days prior to the study and given access to food and water throughout the entire study. All animal procedures were approved by University of Texas Medical Branch IACUC and performed humanely with minimal suffering. Briefly, mice were shaved dorsally the morning of experimentation as previously described (8). The mice were given an i.p. challenge of 1000 ng of flagellin and 1×10^7 CFU/mouse of EC 083:H1 and then treated with 500 pg of rCST9 and/or 50 pg of rCSTC. Immediately following treatment, mice were anesthetized with pentobarbital (Nembutal) and subjected to a 30% total body surface area (TBSA) burn injury. […]

[9] = system: gut microbiome; experiment: Gut microbiome by 16S next generation sequencing, infection and thermal injury model; format: in vivo, Balb/c mice
Experimental: as §1
Gut samples were harvested at 24 and 48 h from the same 4 mouse groups euthanized to collect sera as described above. As we reported in a previous publication (8), briefly, approximately 3 mm^3 pieces of the intestine (close to the cecum) were sterilely harvested from each mouse. For gut microbiome analysis, DNA from intestinal samples was extracted from samples lysed in MagNA Pure DNA Tissue Lysis Buffer followed by automated extraction on a MagNA Pure 96 platform (Roche). The isolated DNA was amplified using a panel of five “universal” primer pairs (Ion Xpress Barcodes) that created overlapping 400 bp DNA fragments covering 95% of the bacterial 16S rDNA. Barcoded amplimers were mixed at equimolar ratios and then subjected to Ion Torrent NGS (Thermo Scientific). Average read length was >300 bases with sequence generated from both strands. Reads were filtered and binned according to Ion Xpress barcode with Ion Torrent Suite software (v 4.0.2). Sequencing reads were then further processed using Galaxy software where each barcode was trimmed to remove the primer sequence. The 16S sequences were compared to the SILVA database using bowtie 2 software to yield species or genera level matches to return the hit-rate. Where multiple calls to the same genera were made the number of hits were added accordingly. Hit rates were converted to percentage of total to give an overall ratio of the sequenced microbiome.

[10] = individual treatment, 24 and 48 h post-burn

Molecule	viability and virulence [1]	viability and virulence [2]	viability and virulence [3]	viability and virulence [4]	viability and virulence [5]	MDM killing of pathogens [6]	cytokine secretion from infected MDM [7]	survival [8]	gut microbiome profile [9, 10]	Bacteroidales S24-7 in gut microbiome ([9]; 24 h post-burn)	Lachnospiraceae family in gut microbiome ([9]; 24 h post-burn)	gut microbiome profile ([9]; 48 h post-burn)
B1	retarded the viability and virulence	retarded the viability and virulence	retarded the viability and virulence	retarded the viability and virulence	retarded the viability and virulence	induced human monocyte-derived macrophage (MDM) killing	restrained cytokine secretion	did not improve survival	preserved the gut microbiome that was equivalent to sham controls			
B2							restrained cytokine secretion		preserved the gut microbiome that was equivalent to sham controls	noticeable but moderate increase	proportionate decrease	nearly equivalent to sham controls

Source: patent US12053511B2, “Cystatin C and Cystatin 9 to treat gut inflammation caused by thermal injury” (priority 2016, dated 2024)
